This series in a line: yeast display, Sf9 membrane polyspecificity reagent, FACS + sequencing; frameworks hold sequencing errors. An outline of the steps:
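Galactose-induced (36–48 hours) yeast carrying a synthetic nanobody display library were exposed to 10% biotinylated, detergent-solubilized Sf9 membrane reagent at 4 °C for 1 hour. FACS followed streptavidin microbead enrichment, using low and high (top ~1%) gates for expression (anti-HA) and reagent binding (streptavidin). Colony PCR, MiSeq 2 × 250 sequencing and CDR-length filtering followed. Labels for polyreactivity reflect the gate of origin.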
As to “QVQLVESWGGLVQAGGSLRLSCAASGSTFAQNTMGWYRQAPGKERELVATISDGGGSTYYADSVKGRFTISRDNAKNTVYLQMNSLKPEDTAVYYCNTDRFWPSYYWGQGTQVTVSS”, the “polyreactivity (PSR sort gate)” value is recorded as “low polyreactivity”.

“QVQLVESVGGLVQAGGSLRLSCAASGRTFLRNAMGWYRQAPGKERELVASITSRGGRTYADSVKGRFTISRDNAKNTVYLQMNSLKPEDTAVYYCAARRQAGLRYDYWGQGTQVTVSS”: the “polyreactivity (PSR sort gate)” value was “high polyreactivity”.

Consider “QVQLVESGGGLVQAGGSLRLSCAASGSIFYTNAMGWDRQAPGKERELVATITSSTGSTNYADSVKGRFTISRDNAKNTVYLQMNSLKPEDTAVYYCAKRDGYWVYYQMDYWGQGTQVTVSS”, for which the “polyreactivity (PSR sort gate)” value is “low polyreactivity”.

With “QVQLVESGGGLVQAGGSLRLSCAASGFTFPYYAMGWYRQAPGKERELVAAISSGGRTNYADSVKGRFTISRDNAKNTVYLQMNSLKPEDTAVYYCATRSYVFAWEFNYWGQGTQVTVSS”, the “polyreactivity (PSR sort gate)” value is “high polyreactivity”.

On to “QVQLVESGGGLVQAGGSLRVSCAASGFIFLAYAMGWYSQAPGKERELFAAIDTSGGSTYYADSVKGRFTSTRDNAKNTVYLQMNSLKPEDSAVYYCAADDYDQYYFDYDYWGQGTQVTVSS”, for which the “polyreactivity (PSR sort gate)” value is given as “low polyreactivity”.

In the case of “QVQLVESGGGLVQAGGSLRLSCAASGFIFRTNAMGWYRQAPGKERELVAAISRSGNTYYADSVKGRFTISRDNAKNTVYLQMNSLKPEDTAVYYCNAGWYGAYRWYRSDYWGQGTQVTVSS”, the “polyreactivity (PSR sort gate)” value is listed as “high polyreactivity”.

Turning to “QVQRVESGGGLVQAGGSLRLSCAASGLTSKFYAMGWYRQAPRKERELVAAISGSGGSTYYADSVKGRFTISRDKAKNTVYLQMNSLKPEDTAVYYFAARYFGLRYYYWGQGTQVTVSS”, the “polyreactivity (PSR sort gate)” value is “high polyreactivity”.

In the case of “QVQLVESGGGLVQAGGSLRLSCAASGYIFSHYAMAWYRQAPGKERELVAAISRNGGSTYYADSVKGRFTISRDNAKNTVYLQMNSLKPEDTSVYYCAVGWKYRYGYWGQGTQVTVSS”, the “polyreactivity (PSR sort gate)” value is “high polyreactivity”.

With “QVQLVESGGGLVQAGGSLRLSCAASGTMGWYRQAPGKERELVAANSSSDRTSYADSVKGRFTISRDNAKNTVYLQMNSLKPEDTAVYYCNASTVFAWRTSTLKLFYTAHDYWGQGTQVTVSS”, the “polyreactivity (PSR sort gate)” value is reported as “low polyreactivity”.

As to “QVQLVESGGGLVQAGGSLRLSCAASGLIFDPYAMGWYRQAPGKERELVAAITWSGDSTSYADSVKGRFTISRDNAKNTVYLQMNSLKPEDTAVYYCAADGWSRSWGYWVHYGYWGQGTQVTVSS”, the “polyreactivity (PSR sort gate)” value was “low polyreactivity”.

As to “QVQHEDSGGCLVQAAGSLSVSCAATGSTFDTYEMGRSRKATGKEMELVAAISSGGGTKYADSVKGRFKISRDNAKNTVYLQMNSLKPEDTAVYYCAADKAVGDSTRYYYWGQGTQVTVSS”, the “polyreactivity (PSR sort gate)” value was “low polyreactivity”.

Turning to “QVQHVESGGGLVQAGGSLRLSCAASGRIFSINVMGWYRHAPGKERELVAAISKLGGSTYYADSVKGRFTISRDNAKNTVYLQMNSLKPEDTAVYYCAARRHYTYGNGPSRGGQMDYWGQGTQVTVSS”, the “polyreactivity (PSR sort gate)” value was “high polyreactivity”.

As for “QVQLVESGGGLVQAGGSLRLSCAASGFIFSSYGMGWYRQAPGKERELVADISGGGSTNYADSVKGRFTISRDNAKNTVYLQMNSLKPEDTAVYYCNAQLIRSAAYDYWGQGTQVTVSS”, the “polyreactivity (PSR sort gate)” value was “low polyreactivity”.

As for “QVQLVESVVGLVQAGGSLRLSCAATGSIFRWYAMGWYRQAPGKERELVAAITWSASRTYYADSVKGRFTISRDNGKNTVYLQMNSLKPEDTAVYYCAADHDCPYAGYDSWGQGTQVTVSS”, the “polyreactivity (PSR sort gate)” value is recorded as “low polyreactivity”.

In the case of “QVQLVESGGGLVQAGGSLRLSCAASGYTFSFYAMGWYIQAPGKERELVATISWRGGSTYYADSVKGRFTISRDNAKNTVYLQMNSLKPEDTAVYYCNIVDKTGSKMDYWGQGTQVTVSS”, the “polyreactivity (PSR sort gate)” value was “high polyreactivity”.

With “QVQLLESGGGLVQAGGSLRLSCAASGYIFLRNAMGWYRQAPGKERELVAAIRRTGGSTYYADSVKGRFTISRDNAKNTVYLQMNSLKPEDTAVYYCAKRSYTGYEYWGQGTQVTVSS”, the “polyreactivity (PSR sort gate)” value was “low polyreactivity”.

Consider “QVQLVESGGGLVQAGGSLRLSCAASGFIFRWYAMGGYRPAPGKERELVASITRCGSTYYADSVKGRFTISRDNAKNTVYLQMNSLKPEDTAVYYCAVDYLSPKYDYWGHGTQVTVSS”, for which the “polyreactivity (PSR sort gate)” value is “high polyreactivity”.

“QVQLVESGGGLVQAGGSLRLSCAASGSIFWGNAMGWYRQAPGKERELVAAIDWSGGSTYYADSVKGRFTISRDNAKNTVYLQMNSLKPEDTAVYYCAADYLGGGDVGFDYWGQGTQVTVSS”: the “polyreactivity (PSR sort gate)” value is given as “low polyreactivity”.

Consider “QVQLVESGGGLVQAGGSLRLSCAASGYILRYYGLGWYRQAPGKERELVAAITRGVSTNYADSVKGRFSISRDNAKNTVYLKMNSLKPEDTAVYYCAAKYYPYSSLSKPWTMDYWGQGTQVTVSS”, for which the “polyreactivity (PSR sort gate)” value was “low polyreactivity”.

“QVQLVESGGGLVQAGGSLRLSCAASGSTFLYYAMGWYRQAPGKERELVARITTRVGRTYYADSVKGRFTISRDNAKNTVYLQMNSLNPEDTAVYYCAAYPDYSYYYWGQGTQVTVSS”: the “polyreactivity (PSR sort gate)” value is “high polyreactivity”.

As to “QVQLVESGGGLVQAGGSLRLSCAASGFIFKTYAMGWYRQAPGKERELVATITRRGGRTYYADSVKGRFTISRDNAKNTVYLQMNSLKPEDTAVYDCAADYALSSLPFDYWGQGTQVTVSS”, the “polyreactivity (PSR sort gate)” value is “high polyreactivity”.

As for “QVQLVESGGGLVQAGGRLRLSCAASGLIFGANTMGWYSQAPGKERELVAAITSSGGSTYYADSVKGRFTISRDNAKNTVYLQMNSLKPEDTAVYFCNDRSWYPYDYWGQGTQVTVSS”, the “polyreactivity (PSR sort gate)” value was “low polyreactivity”.

Regarding “QVQLVESGGGLVQAGGSLRFSCAASGRIFDYYAMGGYRQAPGKERELVATINVSDGSTYYADSVKGRFTISRDNAKNTVYLQMNSLKPEDTAVYYCAAAGWVPFDSLDLNYWGQGTQVTVSS”, the “polyreactivity (PSR sort gate)” value is on record as “low polyreactivity”.

For “QVQLVESGGGLVQAGGSLRLSCAASGRIFNRYAMGWYRQAPGKERELVAAINYRGSSTYYADSVKGRFTISRDNAKNTGYLQMNSLKPEVTAVYYCKTYGQTDTYWRYYYWGQGTQVTVSS”, the “polyreactivity (PSR sort gate)” value is recorded as “high polyreactivity”.

Consider “QVQLVESGGGLVQAGGSLRLSSAASGSTFYLNTMGWYRQAPGKEREFVAAISARGGSTYYADSVKGRFTISRDNAKNTVYLQMNSLKPEDTAVYYCAAKFVRFYWNYDYWGQGTQVTVSS”, for which the “polyreactivity (PSR sort gate)” value is reported as “high polyreactivity”.

On to “QVQLVESGGGLVQAGGSLRLSCAASGSTFYYYAMGWYRQAPGKERELVAAISVSGASKYYADSVKGRFTISRDNAKNTVYLQMNSLKPEDTAVYYCAADEGYPGDGDYWGQGTQVTVSS”, for which the “polyreactivity (PSR sort gate)” value is “low polyreactivity”.

In the case of “QVQLVESGGGLVQAGGSLRLSCAPSGGTFPVYAMGWYRQAPGKERELVAAISYSGVTTYNADSVKGRFTISRDNAKNTVYLQMNSLKPEVTAVYYCNADWRPWYMFSYDYWGQGTQVTVSS”, the “polyreactivity (PSR sort gate)” value is “low polyreactivity”.

“QVQLLESGGGLVQAGGSLRISCAASGFTFWYYAMGWYRQAPGKERELVAAITSSGGSTYYADSVKGRFTISRDNAKNTVYLQMNSLKPEDTAVYYCAAGAPYRYYYWGQGTQVTVSS”: the “polyreactivity (PSR sort gate)” value is listed as “high polyreactivity”.

In the case of “QVQLVESGGGLVQAGGRLRLSCAASGSIFGRYAMGRYRQAPGKERELVAAITWSATSTYYADYVKGRFTISRDNAKNTVYLQMNSLKPEDTAVYYCAVRTPRARYTYGSWGQGTQVTVSS”, the “polyreactivity (PSR sort gate)” value is on record as “high polyreactivity”.

Regarding “QVQLVDSGGDLVQAGGSLSLSCAASGRIFVYYAMGWYRQAPGTERELVAVITSVGSTYYADSVKGRFTISRDNAKNTVYLQMNSLKPEDTAVYYCAAEWEYYGFDYWGQGTQVTVSS”, the “polyreactivity (PSR sort gate)” value is reported as “low polyreactivity”.

For the origin of these results see the nanobody polyreactivity screen of Harvey et al. (2022).
